Values quoted from earlier work in patent US8541373B2, “BChE albumin fusions for the treatment of cocaine abuse” (priority 2009, dated 2013).
Residue numbers refer to the chain shown, from its start. Names and notes keep the numbering of the source.

B1: A328W/Y332A (protein, UniProt P06276 29-602, looked up, variant A328W Y332A)
Cholinesterase: EDDIIIATKNGKVRGMNLTVFGGTVTAFLGIPYAQPPLGRLRFKKPQSLTKWSDIWNATKYANSCCQNIDQSFPGFHGSEMWNPNTDLSEDCLYLNVWIPAPKPKNATVLIWIYGGGFQTGTSSLHVYDGKFLARVERVIVVSMNYRVGALGFLALPGNPEAPGNMGLFDQQLALQWVQKNIAAFGGNPKSVTLFGESAGAASVSLHLLSPGSHSLFTRAILQSGSFNAPWAVTSLYEARNRTLNLAKLTGCSRENETEIIKCLRNKDPQEILLNEAFVVPYGTPLSVNFGPTVDGDFLTDMPDILLELGQFKKTQILVGVNKDEGTWFLVAGAPGFSKDNNSIITRKEFQEGLKIFFPGVSEFGKESILFHYTDWVDDQRPENYREALGDVVGDYNFICPALEFTKKFSEWGNNAFFYYFEHRSSKLPWPEWMGVMHGYEIEFVFGLPLERRDNYTKAEEILSRSIVKRWANFAKYGNPNETQNNSTSWPVFKSTEQKYLTLNTESTRIMTKLRAQQCRFWTSFFPKVLEMTGNIDEAEWEWKAGFHRWNNYMMDWKNQFNDYTSKKESCVGL
B2: A227S/S315G/A356W/Y360G (protein, UniProt P06276 29-602, looked up, variant A227S S315G A356W Y360G)
Cholinesterase: B1 Cholinesterase with A199S, S287G, A332G

Conditions: cited from earlier work

Molecule	kcat relative to wild-type BChE (cocaine hydrolase activity) [fold]	Catalytic efficiency relative to wild-type BChE (hydrolysis of cocaine) [fold]
B1	40	–
B2	–	500
